Experimental findings from patent publication US20040105855A1 (Bristol-Myers Squibb, published 2004) are described below.

In assay [1] the target is T1, hu4-1BBIg fusion protein (extracellular domain of H4-1BB fused to the constant domains of a human IgG1 … (human, UniProt Q07011 24-186; P01857 99-330 = IgG part).
T1 construct: extracellular domain;domain: constant domains of a human IgG1 antibody; also called immobilized H4-1BB; Human 4-1BB receptor; not shown: thrombin cleavage site between the 4-1BB and Ig portions
T1 sequence (Q07011 other isoform, or with tags, fused parts or gaps): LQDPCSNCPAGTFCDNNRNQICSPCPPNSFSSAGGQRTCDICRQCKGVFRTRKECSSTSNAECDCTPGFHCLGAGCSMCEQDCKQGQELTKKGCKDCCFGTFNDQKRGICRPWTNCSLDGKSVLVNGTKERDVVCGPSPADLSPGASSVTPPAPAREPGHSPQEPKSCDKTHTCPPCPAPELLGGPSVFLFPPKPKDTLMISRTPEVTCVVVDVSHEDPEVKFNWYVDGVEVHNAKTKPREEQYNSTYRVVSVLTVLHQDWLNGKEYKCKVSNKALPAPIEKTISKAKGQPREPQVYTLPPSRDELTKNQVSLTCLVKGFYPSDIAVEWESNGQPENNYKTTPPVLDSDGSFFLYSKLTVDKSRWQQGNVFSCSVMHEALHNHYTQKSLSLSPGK
In words: SPR BIAcore 3000, antibody 10-100 nM over low-density immobilized H4-1BB (557 RU), global fit, Bivalent Analyte Model (Kd1). On the procedure:
(§1) These studies were carried out on a BIAcore 3000 instrument (BIAcore Inc., Piscataway, N.J.). Dilutions of the antibodies were injected under identical conditions over sensorchip surfaces of immobilized H4-1BB.
(§2) Human 4-1BB receptor was immobilized covalently to a low density on a carboxy-methylated dextran surface of a BIAcore sensorchip (BIAcore Inc., Piscataway, N.J.). Through primary amino groups the fusion protein, injected at 2 μg/mL in 10 mM acetate buffer, pH 5.0, bind to an EDC/NHS-activated surface. […] After regenerating with 10 mM glycine, pH 2.0 the surface was ready for binding studies. Antibodies 39E3 and hu39E3.G4 were diluted to concentrations between 10 nM and 100 nM using HBS-EP buffer. All mAb dilutions were injected over two flow cells (FC) at a flow rate of 25 μl/minute. FC1 served as a negative control, FC2 had low density of human 4-1BB (557 RU). Bound anti-human 4-1BB mAbs were removed by regeneration with 10 mM Glycine pH 1.75.
(§3) Kinetic parameters were calculated with BIAevaluation program (version 3.1) (BIAcore Inc., Piscataway, N.J.). A global curve fit analysis was performed using a Bivalent Analyte Model (BIAcore Inc. Piscataway, N.J.). […] The binding affinities for the parental mAb, 39E3, and the humanized anti-H4-1BB mAb are shown below in Table 3.
Background: SPR reads the build-up and loss of mass on a sensor chip optically.

Assay [2] addresses T1, hu4-1BBIg fusion protein (extracellular …). In words: SPR BIAcore 3000, antibody 10-100 nM over low-density immobilized H4-1BB (557 RU), global fit, Bivalent Analyte Model (Ka1). Here is the method:
as §1, §2, §3

The target is the same in assay [3]. In words: SPR BIAcore 3000, antibody 10-100 nM over low-density immobilized H4-1BB (557 RU), global fit, Bivalent Analyte Model (KA1). On the procedure:
as §1, §2, §3

Assay [4] shares this target. In words: SPR BIAcore 3000, antibody 10-100 nM over low-density immobilized H4-1BB (557 RU), global fit, Bivalent Analyte Model (KD1). On the procedure:
as §1, §2, §3

B1: mAb 39E3 (parental rat anti-human 4-1BB monoclonal antibody) (antibody, V domains shown)
VH: EVQLVESGGGLVKPGASLKLSCVASGFTFSDYWMSWVRQTPGKTMEWIGDIKNDGSYTNYAPSLTNRFTISRDNARSTLYLQMNNVRSEDTATYYCTRELTGT
VL: DIIMTQSPFSLAVSEGEMVTMNCKSSQSLLSSGNQKNYLAWYQQKPGQPPELLIYYASTRQSGVPDRFIGSGSGTDFLTLTISDVQAEDLADYYCLQYDRYPFT
notes: constant regions are not; also called parental antibody; parental mAb
One may read the koff as a measure of how fast the partners let go of each other. One may read the kon as a measure of how fast the partners come together. Lower therefore signals slow association. Turning to B1, the koff in assay [1] is 4.77e-05 s⁻¹. The molecule also displayed a kon in assay [2] of 7070 M⁻¹ s⁻¹. Further, in assay [3], the Ka was 1.48e+08 M⁻¹. Also, in assay [4], the Kd was 6.7 nM.

B2: hu39E3.G4 (humanized 39E3, IgG4) (antibody, V domains shown)
VH: EVQLVESGGGLVQPGGSLRLSCAASGFTFSDYWMSWVRQAPGKGLEWVADIKNDGSYTNYAPSLTNRFTISRDNAKNSLYLQMNSLRAEDTAVYYCARELTGTWGQGTMVTVSS
VL: DIVMTQSPDSLAVSLGERATINCKSSQSLLSSGNQKNYLAWYQQKPGQPPKLLIYYASTRQSGVPDRFSGSGSGTDFTLTISSLQAEDVAVYYCLQYDRYPFTFGQGTKLEIKR
notes: Humanized IgG4 with a hinge mutation (after Angal et al.), made in CHO DG-44; also called humanized 39E3.G4 antibody; humanized anti-H4-1BB mAb
The molecule B2 showed an off-rate (koff) in assay [1] of 2.53e-05 s⁻¹. The molecule also gave a kon in assay [2] of 4740 M⁻¹ s⁻¹. The same molecule registered a Ka in assay [3] of 1.87e+08 M⁻¹. The Kd in assay [4] was found to be 5.3 nM.
